We go through 2 molecules from article PMC1277823, “nfi-1 affects behavior and life-span in C. elegans but is not essential for DNA replication or survival”.

The series deals with hNFI-C220-H6 (human, UniProt P08651 1-220). As to the kind of experiment: EMSA; ~5 ng protein; EMSA on 6.5% non-denaturing polyacrylamide gel (Fig. 2A); buffer, salt, pH and temperature not given (as in cited refs 38, 54). Conditions: protein: recombinant; tags: 6xHis; chain copies: 2. Background: Mobility shift assays separate free from complexed probe on a gel.
hNFI-C220-H6, sequence (P08651 1-220): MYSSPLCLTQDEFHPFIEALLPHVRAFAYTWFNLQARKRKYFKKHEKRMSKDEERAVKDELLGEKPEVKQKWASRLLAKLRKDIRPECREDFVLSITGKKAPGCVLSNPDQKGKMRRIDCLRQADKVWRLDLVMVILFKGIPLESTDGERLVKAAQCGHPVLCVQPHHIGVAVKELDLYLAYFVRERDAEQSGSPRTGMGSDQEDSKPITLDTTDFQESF

B1: 2.6 (dsDNA)
DNA 1: AGGTCTGGCTTTGGGCCAAGAGCCGC
DNA 2: GCGGCTCTTGGCCCAAAGCCAGACCT
For the molecule B1, the binding result is listed as “binds”.

B2: C2 (dsDNA)
DNA 1: AGGTCTCGCTTTGGGCCAAGAGCCGC
DNA 2: GCGGCTCTTGGCCCAAAGCGAGACCT
Regarding B2, the binding result was “no binding”.
